The values that follow come from patent US9616120B2, “Monoclonal antibodies directed to CD20” (VET THERAPEUTICS, INC., priority 2010, dated 2017).

The subject of one data set is canine B cells. Conditions: Veterinary Journal, 2006, vol 171, 556; cited from earlier work.
Another data set has as its target T1, recombinant canine CD20 (Canis lupus familiaris, UniProt Q3C2E2, A201T/C77Y/G273E/L198V).
T1 construct: are transfected with an expression vector encoding the full-length canine CD20 protein; expressed in transfected cells; host or cells: CHO cells (CHO-DG44)
T1 sequence (Q3C2E2 1-297 C77Y/L198V/A201T/G273E): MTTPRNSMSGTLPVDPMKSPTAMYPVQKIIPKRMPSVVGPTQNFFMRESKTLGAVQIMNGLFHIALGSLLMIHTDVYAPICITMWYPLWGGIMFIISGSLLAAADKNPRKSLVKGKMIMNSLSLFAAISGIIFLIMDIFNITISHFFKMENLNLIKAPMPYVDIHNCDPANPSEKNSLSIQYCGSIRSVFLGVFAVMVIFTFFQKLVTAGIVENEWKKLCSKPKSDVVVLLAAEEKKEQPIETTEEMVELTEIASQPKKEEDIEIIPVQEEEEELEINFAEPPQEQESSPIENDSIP
The data set is described as follows: Competition experiments (epitope mapping) on CHO cells expressing recombinant canine CD20. It counts as binding. The settings on record: for percentage of inhibition (PI), labeled antibody CD20-1 / percentage of inhibition (PI), labeled antibody CD20-2 / percentage of inhibition (PI), labeled antibody CD20-5: unlabelled competitor 25 μg/mL; for percentage of inhibition (PI), labeled antibody CD20-1: biotin-labeled CD20-1 2 μg/mL; for percentage of inhibition (PI), labeled antibody CD20-2: biotin-labeled CD20-2 2 μg/mL; for percentage of inhibition (PI), labeled antibody CD20-5: biotin-labeled CD20-5 2 μg/mL. How it is done: Competition experiments are performed using standard techniques. Briefly, biotinylated recombinant anti-canine CD20 antibodies are titrated on CHO cells expressing recombinant canine CD20. Cells are first incubated with an excess of unlabelled recombinant anti-canine CD20 antibody (25 μg/mL). Thereafter, cells are incubated with a biotin-labeled antibody at 2 μg/mL. After washing, cells are incubated with streptavidin- phycoerythrin and fluorescence is analyzed by flow cytometry. An irrelevant antibody is used as negative control for inhibition. Results are expressed as a ratio between fluorescence intensity of the cells pre-incubated with the unlabelled antibody and the fluorescence intensity obtained for each biotinylated antibody alone. The percentage of inhibition (PI) is calculated by the following formula: PI=[1−(Experimental-Background)/Biotinylated antibody alone−Background)]×100%.

In data set [1] the test system is B lymphocyte cell population. Description: Depletion of B cells in vivo (CD21 flow cytometry). On the set-up: species or system beagle dogs. The settings on record: three consecutive doses 2.4 mg/kg to 5.0 mg/kg. The protocol:
Three beagle dogs receive three consecutive dosages of the antibody CD20-2 (VET305) ranging from […] to 5.0 mg/kg every 5 days. Blood samples drawn at several time points are centrifuged at 2000 RPM for 5 min. Plasma is removed for assay of the antibody levels. The pellet containing peripheral blood leukocytes and red blood cells is resuspended in a plasma equivalent volume of phosphate saline solution (Dulbecco's Phosphate-Buffered Saline, Mediatech, Cat No. 21-030-CM) for quantitation of lymphocyte populations by flow cytometry. A 0.1 mL volume of the cell preparation is distributed into micro-centrifuge tubes. Labeled monoclonal antibody with specificity for the canine lymphocyte surface marker CD21 is added to the vial to identify the B lymphocyte cell population. An additional sample is included with no reagents for determination of autofluorescence. Cells are incubated with the fluorescent antibody for 30 min. Red blood cell were then lyzed for 15 min using a lysis buffer (Red Blood Cell Lysis Buffer, Biolegend,Cat No. 420301) and then washed prior to analysis on a Becton Dickinson FACS instrument.

Data set [2] is described as follows: Half-life of recombinant anti-canine CD20 antibody in beagle dogs (plasma ELISA). It counts as in vivo. The protocol:
The half-life of the recombinant anti-canine CD20 antibody are assessed. In this example, the half-life of antibody CD20-2 (VET305) is assessed by dosing beagle dogs intravenously. Blood is collected for analysis of CD20-2 in plasma samples harvested as whole blood treated with Ethylenediaminetetraacetic acid (EDTA) as the anticoagulant. An enzyme linked immunosorbant assay (ELISA) method is utilized to determine the plasma antibody concentrations. In this assay, a 96-well plate is coated with a rabbit polyclonal antibody raised to the variable domain of the antibody CD20-2. The antibody CD20-2 in standards or in samples is captured by the polyclonal antibody and is detected by an enzyme conjugated anti-dog secondary antibody. A non-linear regression fit of the standards is used to determine the recombinant antibody concentrations in plasma.
For orientation: An ELISA detects its analyte on a solid surface through an enzyme-linked reagent.

Data set [3] deals with feline CD20 expressed in mammalian cells. The data set is described as follows: FACS binding to cells expressing recombinant feline CD20. Conditions: for mean fluorescence, Feline CD20: antibody 2.5 μg/mL. The protocol: (§1) The binding of the antibody variants of the present invention raised to canine CD20 can be assessed by FACS analysis for their binding to feline CD20 according to standard immunological techniques (see Veterinary Immunology and Immunopathology 2005, 106:179-196; Brousseau et al., Manual of Immunology Methods, CRC Press, 1998). In the present example, the antibody variants (2.5 μg/mL) are incubated with mammalian cells expressing the recombinant feline CD20 or canine CD20 or control cells. The amount of bound antibody is assessed by detection with a fluorescent-labeled reporter antibody reagent. Several controls are utilized to determine the background fluorescence: (i) CD20 expressing cells are incubated with the conjugated secondary antibody with an isotype antibody, and (ii) Control cells are incubated with the anti-CD20 antibodies.
Background: A flow cytometer gives signals particle by particle.

The nature of data set [4]: Tolerability of weekly dosing. In kind it is in vivo. The settings on record: weekly dose over 4 weeks.
The next data set relates to Control Cells. The data set is described as follows: FACS binding to control cells. The settings on record: antibody 2.5 μg/mL. The protocol:
In the present example, the antibody variants (2.5 μg/mL) are incubated with mammalian cells expressing the recombinant feline CD20 or canine CD20 or control cells. The amount of bound antibody is assessed by detection with a fluorescent-labeled reporter antibody reagent. Several controls are utilized to determine the background fluorescence: (i) CD20 expressing cells are incubated with the conjugated secondary antibody with an isotype antibody, and (ii) Control cells are incubated with the anti-CD20 antibodies.

Data set [5] deals with T2, recombinant canine CD20 expressed in HEK cells (Canis lupus familiaris, UniProt Q3C2E2, A201T/C77Y/G273E/L198V).
T2 construct: expressed in transfected cells; host or cells: HEK cells
T2 sequence (Q3C2E2 1-297 C77Y/L198V/A201T/G273E): T1 sequence (Q3C2E2 1-297 C77Y/L198V/A201T/G273E)
The data set is described as follows: FACS binding to cells expressing recombinant canine CD20. Conditions: for mean fluorescence, Canine CD20: antibody 2.5 μg/mL. How it is done:
as §1

[6] abbreviates: multiple doses 2.0 to 5.0 mg/kg.

Chain of feline CD20 expressed in mammalian cells (as listed by the source): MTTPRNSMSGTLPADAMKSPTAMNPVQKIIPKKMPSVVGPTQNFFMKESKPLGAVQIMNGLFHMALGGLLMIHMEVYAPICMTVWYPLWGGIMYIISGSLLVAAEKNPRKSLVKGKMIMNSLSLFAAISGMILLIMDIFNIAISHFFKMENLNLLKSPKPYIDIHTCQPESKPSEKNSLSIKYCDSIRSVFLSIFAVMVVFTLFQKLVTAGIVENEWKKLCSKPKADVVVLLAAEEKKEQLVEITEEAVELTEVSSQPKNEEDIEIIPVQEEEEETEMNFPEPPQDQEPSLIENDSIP

As for “Rituximab: a monoclonal antibody to the human CD20 antigen”, the “reactivity with canine B cells” value in the data set on canine B cells was “does not react with canine B cells”.

B1: CD20-2: anti-canine CD20 antibody; full length HC SEQ ID NO. 38, LC SEQ ID NO. 39 (antibody)
heavy: QVQLQQSRAELVRPGASVTLSCKPSGYTFTDYEVHWVKQTPVHGLEWIGAIDPETGGTADNQKFKGKAILTADKSSSTAYMELRSLTSEDSAVYYCTNFVDVWGTGTTVTVSSASTTAPSVFPLAPSCGSQSGSTVALACLVSGYFPEPVTVSWNSGSLTSGVHTFPSVLQSSGLYSLSSMVTVPSSRWPSETFTCNVAHPASKTKVDKPVPKRENGRVPRPPDCPKCPAPEMLGGPSVFIFPPKPKDTLLIARTPEVTCVVVDLDPEDPEVQISWFVDGKQMQTAKTQPREEQFNGTYRVVSVLPIGHQDWLKGKQFTCKVNNKALPSPIERTISKARGQAHQPSVYVLPPSREELSKNTVSLTCLIKDFFPPDIDVEWQSNGQQEPESKYRTTPPQLDEDGSYFLYSKLSVDKSRWQRGDTFICAVMHEALHNHYTQKSLSHSPGK
light: DVVMSQSPSSLAVSVGEKVTMSCKSSQSLLYSGNQKNYLAWYQQKPGQSPRLLIYWASTRESGVPDRFTGSGSGTDFTLTISSVKAEDLAVFYCQQYYNYPLTFGGGTHLTVLGQPKASPSVTLFPPSSEELGANKATLVCLISDFYPSGVTVAWKADGSPITQGVETTKPSKQSNNKYAASSYLSLTPDKWKSHSSFSCLVTHEGSTVEKKVAPAECS
modifications: canis familiaris/mus musculus
notes: anti-canine CD20 antibody; 39
Consider B1, for which, in the data set with recombinant canine CD20, the “percentage of inhibition (PI), labeled antibody CD20-1” value is reported as 0.90%; the “percentage of inhibition (PI), labeled antibody CD20-2” value is on record as 124.33%; the “percentage of inhibition (PI), labeled antibody CD20-5” value was found to be 3.69%. In addition, the “duration of depletion after the last dose” value in data set [1] was “at least 10 days”. In addition, the “B lymphocyte cell percentage after treatment” value in data set [1] (every 5 days) was “decrease in-B lymphocyte cell percentage”. The “change of half-life values” in data set [2] (consecutive administration) was “increase after consecutive administration”. For the same molecule, in data set [2] (setting [6]), the elimination half life result was “one week”; the “plasma antibody concentrations (in words)” value was “increases overtime and persists at significant levels”; the volume of distribution result is on record as “approximating plasma volume”. Further, the “plasma antibody concentrations (in words)” value in data set [2] (single dose 2.4 mg/kg) was “high plasma antibody concentrations are achieved in all animals”. In addition, the “mean fluorescence, Feline CD20” value in data set [3] was found to be 2209 mean fluorescence units. The “binding to feline CD20 (in words)” value in data set [3] (mammalian cells) is “bind feline CD20”. Further, in data set [4], the “adverse effects on clinical and behavioral observations or body weights” value is “no adverse effects”; the tolerability entry was “well tolerated locally and systemically”. In the data set on Control Cells, the “mean fluorescence, Control Cells” value was found to be 49 mean fluorescence units. In data set [5], the “binding to recombinant canine CD20 (in words)” value is reported as “effective binding” and the “mean fluorescence, Canine CD20” value turned out to be 2340 mean fluorescence units.

B2: CD20-6: anti-canine CD20 antibody; full length HC SEQ ID NO. 42, LC SEQ ID NO. 43 (antibody)
heavy: EIQLQQSGAELVRPGASVTLSCKASGYTFTDYEMHWVKQTPVHGLEWIGGIDPETGGTAYNQKFKGKAILTADKSSSTVYMELRSLTSEDSAVYYCTRDYGTSGYWGQGTLVTVSSASTTAPSVFPLAPSCGSQSGSTVALACLVSGYFPEPVTVSWNSGSLTSGVHTFPSVLQSSGLYSLSSMVTVPSSRWPSETFTCNVAHPASKTKVDKPVPKRENGRVPRPPDCPKCPAPEMLGGPSVFIFPPKPKDTLLIARTPEVTCVVVDLDPEDPEVQISWFVDGKQMQTAKTQPREEQFNGTYRVVSVLPIGHQDWLKGKQFTCKVNNKALPSPIERTISKARGQAHQPSVYVLPPSREELSKNTVSLTCLIKDFFPPDIDVEWQSNGQQEPESKYRTTPPQLDEDGSYFLYSKLSVDKSRWQRGDTFICAVMHEALHNHYTQKSLSHSPGK
light: DVVVTQTPLSLPVSFGDQVSISCRSSQSLANSYGNTYLSWYLHKPGQSPQLLIYGISNRFSGVPDRFSGSGSGTDFTLKISRVEAEDLGVYFCSQSTHVPWTFGGGTHLTVLGQPKASPSVTLFPPSSEELGANKATLVCLISDFYPSGVTVAWKADGSPITQGVETTKPSKQSNNKYAASSYLSLTPDKWKSHSSFSCLVTHEGSTVEKKVAPAECS
modifications: canis familiaris/mus musculus
notes: anti-canine CD20 antibody; 43
B2: in the data set with recombinant canine CD20 (conclusion from Table 7), the “epitope of canine CD20 (in words)” value is “recognize different epitopes”. In addition, in the data set with recombinant canine CD20, the “percentage of inhibition (PI), labeled antibody CD20-1” value is recorded as 6.03%; the “percentage of inhibition (PI), labeled antibody CD20-2” value stood at 1.41%; the “percentage of inhibition (PI), labeled antibody CD20-5” value is listed as 5.99%. In addition, in data set [3], the “mean fluorescence, Feline CD20” value amounted to 60 mean fluorescence units. Besides, the “mean fluorescence, Control Cells” value in the data set on Control Cells amounted to 4 mean fluorescence units. In data set [5], the “binding to recombinant canine CD20 (in words)” value is given as “effective binding” and the “mean fluorescence, Canine CD20” value was 2107 mean fluorescence units.
